Measured values taken from patent US20150216948A1, “CYTOCHROME P450 SUICIDE GENE SYSTEM” (priority 2012, published 2015).
Positions count from the first letter of the chain named.

Assays:
HepG2 cells [1] = assay: 4-IPO toxicity assay: survival of transduced HepG2 cells by flow cytometry (propidium iodine); assay type: cell-based, human; details: for 4-IPO processing activity / cell killing (in words): transduced cells challenged with 4-IPO; for cell survival rates upon administration of 4-IPO: transduced cells
Description: Initially, the serine at position 427 in the human CYP4B1 was mutated back to proline (h-P427), which is present at this position in all CYP4B1 proteins. Additionally a proline to serine exchange was created in the native rabbit CYP4B1 enzyme at the corresponding position 422 (r-P422). To immediately exclude the possibility that the different activities between human and the rabbit protein isoforms are simply due to differences in mRNA stability, the human CYP4B1 cDNA (SEQ ID NO.: 2) was optimized for human-codon usage (SEQ ID NO.: 3) by de novo synthesis with silent mutagenesis of the cDNA, thus removing internal TATA-boxes, instability motives, RNA secondary structures and (cryptic) splice donor/acceptor sites and ensuring an average GC content of around 60%. All cDNAs were cloned into the same lentiviral (LV) HIV1-based expression vector and LV supernatants produced by plasmid transfection in HEK293T cells. Subsequently, the two rabbit and the four human cDNAs were stably expressed in the human liver cell line HepG2. Stably expressing transduced cells were challenged after five days with increasing concentrations of 4-IPO for 24, 48 and 72 hours and then the survival of cells analyzed by flow cytometry using propidium iodine for live/dead cell discrimination.
(§1) Next, it was analyzed whether the different activities of the human and the rabbit proteins in processing 4-IPO could be explained by differences in protein half-life. However, as no antibody was available that can detect both CYP4B1 proteins, EGFP fusion constructs were generated. With these constructs, EGFP antibodies can be utilized to visualize and compare the expression levels and the half-lives of the fusion proteins in cells by western blots. EGFP expression can also be used for flow cytometry assessment of the expression levels due to the fluorescent properties of the fusion proteins. 5′- and 3′-fusions of EGFP with the native rabbit P422 and the human P427 CYP4B1 proteins were cloned in LV vectors with an IRES-NEO (NEO=neomycin phosphotransferase cDNA, npt II) and stably expressed in HepG2 cells (FIG. 3 B). For comparison, the corresponding IRES-EGFP constructs were also included, as these vectors had already been used in previous experiments and activity measurements thus already existed. Transduced cells were incubated for 24, 48 and 72 hours with increasing concentration of 4-IPO. Cultures were then harvested, cells stained with propidium iodine and subsequently analyzed for survival of transduced EGFP+ cells by flow cytometry (FIG. 3 A).

HepG2 cells [2] = assay: Half-life of CYP4B1/EGFP fusion proteins after cycloheximide (western blot, FACS); assay type: cell-based, human; details: EGFP fusion, 50 μg/ml cycloheximide, G418-selected HepG2 cells
Experimental: FIGS. 3 C and D show CYP4B1 stability as analysed by western blotting and by flow cytometry. The studies on protein expression and stability were performed with the rabbit and human CYP4B1/EGFP fusion construction in the lentiviral vector with the additional IRES-neomycin cassette. Half-life analysis was performed by adding 50 μg/ml cycloheximide to the transduced and G418-selected HepG2 cells. Samples were collected at the indicated time points.
as §1
After standard inhibition of de novo protein synthesis by cycloheximide, the half-life of the CYP4B1 proteins in stably transduced and G418-resistant HepG2 cells was assessed by determining the protein expression levels over time either in western blotting or in FACS analysis as EGFP fluorescence. […] For the human native protein (h-S427), the mean fluorescence indicates a short average half-life of only 6 hours.

primary human T-cells = assay: 4-IPO toxicity in transduced primary T-cells; assay type: cell-based
Description: Compared to the HepG2 liver cells, primary T-cells might not provide an optimal environment for the function of P450 cytochromes (although the necessary reductase is ubiquitously expressed) and the infection of primary T-cells is considerably more complex.
The T cells were isolated by Ficoll and stimulated with CD3, CD28 and IL2 for 3 days before they were infected with lentiviral vectors using fibronectin. For optimal toxicity in T cells, the suicide genes were not expressed as EGFP fusions proteins but a IRES-EGFP-WPRO vector construct was used. […] However, after 24 hours over 70% of the transgenic T cells were eliminated by CYP4B1 P427 mut12. […] The determination of the virus titer was based on the titration of the reference cell line HT1080.

B1: variant of hCYP4B1 having an insertion of a serine at position 207: human CYP4B1 variant with serine insertion at amino acid position 207 (protein, listed as Homo sapiens)
chain: MVPSFLSLSFSSLGLWASGLILVLGFLKLIHLLLRRQTLAKAMDKFPGPPTHWLFGHALEIQETGSLDKVVSWAHQFPYAHPLWFGQFIGFLNIYEPDYAKAVYSRGDPKAPDVYDFFLQWIGRGLLVLEGPKWLQHRKLLTPGFHYDVLKPYVAVFTESTRIMLDKWEEKAREGKSFDIFCDVGHMALNTLMKCTFGRGDTGLGHSRDSSYYLAVSDLTLLMQQRLVSFQYHNDFIYWLTPHGRRFLRACQVAHDHTDQVIRERKAALQDEKVRKKIQNRRHLDFLDILLGARDEDDIKLSDADLRAEVDTFMFEGHDTTTSGISWFLYCMALYPEHQHRCREEVREILGDQDFFQWDDLGKMTYLTMCIKESFRLYPPVPQVYRQLSKPVTFVDGRSLPAGSLISMHIYALHRNSAVWPDPEVFDSLRFSTENASKRHPFAFMPFSAGPRNCIGQQFAMSEMKVVTAMCLLRFEFSLDPSRLPIKMPQLVLRSKNGFHLHLKPLGPGSGK
modifications: serine insertion at 207
4-IPO processing activity / cell killing (in words) (HepG2 cells [1]): did not reveal any functional differences

B2: modified human CYP4B1 P427 protein with the additional section 1 of the rabbit protein: differs in only four amino acid from the native human CYP4B1 protein (protein)
chain: MVPSFLSLSFSSLGLWASGLILVLGFLKLIHLLLRRQTLAKAMDKFPGPPTHWLFGHALEIQETGSLDKVVSWAHQFPYAHPLWFGQFIGFLNIYEPDYAKAVYSRGDPKAPDVYDFFLQWIGKGLLVLDGPKWFQHRKLLTPGFHYDVLKPYVAVFTESTRIMLDKWEEKAREGKSFDIFCDVGHMALNTLMKCTFGRGDTGLGHRDSSYYLAVSDLTLLMQQRLVSFQYHNDFIYWLTPHGRRFLRACQVAHDHTDQVIRERKAALQDEKVRKKIQNRRHLDFLDILLGARDEDDIKLSDADLRAEVDTFMFEGHDTTTSGISWFLYCMALYPEHQHRCREEVREILGDQDFFQWDDLGKMTYLTMCIKESFRLYPPVPQVYRQLSKPVTFVDGRSLPAGSLISMHIYALHRNSAVWPDPEVFDPLRFSTENASKRHPFAFMPFSAGPRNCIGQQFAMSEMKVVTAMCLLRFEFSLDPSRLPIKMPQLVLRSKNGFHLHLKPLGPGSGK
4-IPO processing activity / cell killing (in words) (HepG2 cells [1]): increased activity for toxifying 4-IPO

B3: coop H-P427: h-P427 expressed from cDNA optimized for human codon usage (protein, listed as Homo sapiens)
chain: B2 chain with K124R, D130E, F135L, P427S
cell survival rates upon administration of 4-IPO (HepG2 cells [1]; FIG. 2): 37%

B4: r-S422: rabbit CYP4B1 with proline-to-serine exchange at position 422 (protein, UniProt P15128 1-506, looked up, variant P422S)
Cytochrome P450 4B1: MLGFLSRLGLWASGLILILGFLKLLRLLLRRQRLARAMDSFPGPPTHWLFGHALEIQKTGSLDKVVTWTQQFPYAHPLWVGQFIGFLNIYEPDYAKAVYSRGDPKAPDVYDFFLQWIGKGLLVLDGPKWFQHRKLLTPGFHYDVLKPYVAIFADSTRIMLEKWEKKACEGKSFDIFSDVGHMALDTLMKCTFGKGDSGLNHRDSSYYVAVSELTLLMQQRIDSFQYHNDFIYWLTPHGRRFLRACRAAHDHTDRVIRQRKAALQDEKEREKIQNRRHLDFLDILLDVRGESGVQLSDTDLRAEVDTFMFEGHDTTTSGISWFLYCMALYPEHQQRCREEVREILGDQDSFQWEDLAKMTYLTMCMKECFRLYPPVPQVYRQLSKPVSFVDGRSLPAGSLISLHIYALHRNSDVWPDPEVFDSLRFSPENSSGRHPYAFIPFSAGPRNCIGQQFAMNEMKVVTALCLLRFEFSVDPLRLPIKLPQLVLRSKNGIHLYLKPLGPKAEK
transduced HepG2 cells eliminated / dead (HepG2 cells [1]; after 24 hours of 4-IPO treatment, FIG. 2): 73%
protein half-life (HepG2 cells [2]): approx. 30 hours

B5: h-P427: human CYP4B1 with serine at position 427 mutated back to proline (protein)
chain: MVPSFLSLSFSSLGLWASGLILVLGFLKLIHLLLRRQTLAKAMDKFPGPPTHWLFGHALEIQETGSLDKVVSWAHQFPYAHPLWFGQFIGFLNIYEPDYAKAVYSRGDPKAPDVYDFFLQWIGKGLLVLDGPKWFQHRKLLTPGFHYDVLKPYVAIFADSTRIMLEKWEKKACEGKSFDIFSDVGHMALDTLMKCTFGKGDSGLNHRDSSYYVAVSELTLLMQQRIDSFQYHNDFIYWLTPHGRRFLRACQVAHDHTDQVIRERKAALQDEKVRKKIQNRRHLDFLDILLGARDEDDIKLSDADLRAEVDTFMFEGHDTTTSGISWFLYCMALYPEHQHRCREEVREILGDQDFFQWDDLGKMTYLTMCIKESFRLYPPVPQVYRQLSKPVTFVDGRSLPAGSLISMHIYALHRNSAVWPDPEVFDPLRFSTENASKRHPFAFMPFSAGPRNCIGQQFAMSEMKVVTAMCLLRFEFSLDPSRLPIKMPQLVLRSKNGFHLHLKPLGPGSGK
4-IPO processing activity / cell killing (in words) (HepG2 cells [1]): rendered this enzyme active for processing 4-IPO
reduction in cell survival rates (HepG2 cells [1]; transduced cells with 4-IPO, FIG. 2): about 50%
cell survival rates upon administration of 4-IPO (HepG2 cells [1]; FIG. 2): about 45%
killing of primary T-cells with 4-IPO (in words) (primary human T-cells; 24 h and 72 h exposure to increasing doses of 4-IPO, EGFP fusions, FIG. 7 B): can be killed within three days
protein half-life (HepG2 cells [2]): 20 h

B6: CYP4B1 P427 mut12: modified human CYP4B1 P427 protein comprising 12 further amino acid exchanges found in other human CYP4 proteins (protein)
chain: B5 chain with E166D, C173R, S182C, N205G, V213L, D227V
4-IPO processing activity / cell killing (in words) (HepG2 cells [1]): equally good killing curve as the modified human CYP4B1 P427 mut18
transgenic T cells eliminated (primary human T-cells; after 24 hours, 4-IPO, IRES-EGFP-WPRO vector, FIG. 17): over 70%

B7: CYP4B1 P427 mut18: modified human CYP4B1 P427 with sections 1+2+3 of the rabbit protein; differs in 19 amino acids (protein)
chain: B5 chain
4-IPO processing activity / cell killing (in words) (HepG2 cells [1]; listed as human P427 CYP4B1 protein with sections 1+2+3): almost as high as the activity of native rabbit protein
4-IPO processing activity / cell killing (in words) (HepG2 cells [1]; listed as modified human CYP4B1 P427 protein with sections 1+2+3 of the rabbit protein): increased activity for toxifying 4-IPO
cell survival rates (HepG2 cells [1]; within 72 hours upon applying 4-IPO, FIG. 6 D): about 10%
